Data on one substance can be found in US20230072897A1, “ANTI-B7-H4 ANTIBODY-DRUG CONJUGATE AND MEDICINAL USE THEREOF” (SHANGHAI HANSOH BIOMEDICAL CO., LTD., priority 2019, published 2023).

The target of this experiment is human B7-H4 on MX-1 cells (human) (UniProt Q7Z7D3). Description: cell-based or functional assay.
Sequence of UniProt Q7Z7D3 (Q7Z7D3 25-282): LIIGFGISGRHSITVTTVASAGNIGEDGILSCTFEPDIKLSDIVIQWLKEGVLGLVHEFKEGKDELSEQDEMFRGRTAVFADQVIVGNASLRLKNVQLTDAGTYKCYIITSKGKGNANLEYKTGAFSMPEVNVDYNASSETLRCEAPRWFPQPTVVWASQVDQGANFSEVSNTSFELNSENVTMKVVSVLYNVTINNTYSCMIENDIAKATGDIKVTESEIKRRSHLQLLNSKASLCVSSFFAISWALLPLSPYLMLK

Turning to IgG control (antibody), the Humanized antibody-mediated endocytosis efficiency of B7-H4 protein, 0 hour (%) was found to be 0%; the Humanized antibody-mediated endocytosis efficiency of B7-H4 protein, 0.5 hour (%) came to 0.1%; the Humanized antibody-mediated endocytosis efficiency of B7-H4 protein, 2 hours (%) amounted to 0.9%.
